Assay results as given in the supplement of paper PMC10567573.

B1: POMT2 (parent)
chain: YHEAPMTRKHYQVTGYGINGTGDS

Variants of: B1
Assay: protein stability index of a GFP-peptide fusion (GPS, HEK-293T) (PSI 1-6); higher = more stable
Details: c terminus: a fixed tail appended
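Also: lentivirally expressed fusions sorted by FACS into six bins by GFP to DsRed ratio, PSI derived from sequencing read proportions per bin multiplied by bin number.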

| Variant | protein stability index |
| --- | --- |
| YHEAPMTRKHYQETGYGINGTGDS | 3.61 |
| YHEAPMTRKHYQFTGYGINGTGDS | 2.08 |
| YHEAPMTRKHYQPTGYGINGTGDS | 2.34 |
| YHEAPMTRKHYQHTGYGINGTGDS | 2.84 |
| YHEAPMTRKHYQITGYGINGTGDS | 2.21 |
| YHEAPMTRKHYQWTGYGINGTGDS | 2.23 |
| YHEAPMTRKHYQLTGYGINGTGDS | 2.69 |
| YHEAPMTRKHYQKTGYGINGTGDS | 2.68 |
| YHEAPMTRKVYQVTGYGINGTGDS | 1.91 |
| YHEAPMTRKGYQVTGYGINGTGDS | 3.05 |
| YHEAPMTRKMYQVTGYGINGTGDS | 1.94 |
| YHEAPMTRKRYQVTGYGINGTGDS | 1.94 |
| YHEAPMTRKWYQVTGYGINGTGDS | 2.49 |
| YHEAPMTRKFYQVTGYGINGTGDS | 2.5 |
| YHEAPMTRKIYQVTGYGINGTGDS | 2.79 |
| YHEAPMTRKEYQVTGYGINGTGDS | 3.02 |
| YHEAPMTRKPYQVTGYGINGTGDS | 2.37 |
| YHEAPMTRKCYQVTGYGINGTGDS | 2.66 |
| YHEAPMTRKAYQVTGYGINGTGDS | 1.86 |
| YHEAPMTRKQYQVTGYGINGTGDS | 2.87 |
| YHEAPMTRKDYQVTGYGINGTGDS | 3.54 |
| YHEAPMTRKLYQVTGYGINGTGDS | 1.51 |
| YHEAPMTRKKYQVTGYGINGTGDS | 2.58 |
| YHEAPMTRKYYQVTGYGINGTGDS | 1.33 |

| Variant | protein stability index |
| --- | --- |
| YHEAPMTRKSYQVTGYGINGTGDS | 2.36 |
| YHEAPMTRKTYQVTGYGINGTGDS | 2.08 |
| YHEAPMTRKNYQVTGYGINGTGDS | 2.92 |
| YHEAPMTRKHYQVEGYGINGTGDS | 2.96 |
| YHEAPMTRKHYQVPGYGINGTGDS | 2.54 |
| YHEAPMTRKHYQVFGYGINGTGDS | 2.57 |
| YHEAPMTRKHYQVNGYGINGTGDS | 2.39 |
| YHEAPMTRKHYQVMGYGINGTGDS | 2.05 |
| YHEAPMTRKHYQVKGYGINGTGDS | 1.97 |
| YHEAPMTRKHYQVDGYGINGTGDS | 3.36 |
| YHEAPMTRKHYQVRGYGINGTGDS | 2.13 |
| YHEAPMTRKHYQVCGYGINGTGDS | 3.13 |
| YHEAPMTRKHYQVAGYGINGTGDS | 1.85 |
| YHEAPMTRKHYQVWGYGINGTGDS | 1.41 |
| YHEAPMTRKHYQVLGYGINGTGDS | 1.99 |
| YHEAPMTRKHYQVVGYGINGTGDS | 1.84 |
| YHEAPMTRKHYQVQGYGINGTGDS | 2.87 |
| YHEAPMTRKHYQVIGYGINGTGDS | 2.12 |
| YHEAPMTRKHYQVHGYGINGTGDS | 2.53 |
| YHEAPMTRKHYQVGGYGINGTGDS | 3.05 |
| YHEAPMTRKHYQVYGYGINGTGDS | 1.54 |
| YHEAPMTRKHYQVSGYGINGTGDS | 2.03 |
| YHEAPMTEKHYQVTGYGINGTGDS | 3 |
| YHEAPMTMKHYQVTGYGINGTGDS | 2.68 |

| Variant | protein stability index |
| --- | --- |
| YHEAPMTWKHYQVTGYGINGTGDS | 1.62 |
| YHEAPMTLKHYQVTGYGINGTGDS | 3.16 |
| YHEAPMTFKHYQVTGYGINGTGDS | 2.09 |
| YHEAPMTNKHYQVTGYGINGTGDS | 2.82 |
| YHEAPMTDKHYQVTGYGINGTGDS | 3.19 |
| YHEAPMTIKHYQVTGYGINGTGDS | 1.94 |
| YHEAPMTSKHYQVTGYGINGTGDS | 2.6 |
| YHEAPMTTKHYQVTGYGINGTGDS | 2.44 |
| YHEAPMTVKHYQVTGYGINGTGDS | 2.55 |
| YHEAPMTYKHYQVTGYGINGTGDS | 2.09 |
| YHEAPMTAKHYQVTGYGINGTGDS | 2.61 |
| YHEAPMTQKHYQVTGYGINGTGDS | 2.86 |
| YHEAPMTPKHYQVTGYGINGTGDS | 2.31 |
| YHEAPMTKKHYQVTGYGINGTGDS | 2.44 |
| YHEAPMTCKHYQVTGYGINGTGDS | 1.95 |
| YHEAPMTHKHYQVTGYGINGTGDS | 3.02 |
| YHEAPMTGKHYQVTGYGINGTGDS | 2.74 |
| YHEAPMPRKHYQVTGYGINGTGDS | 2.42 |
| YHEAPMWRKHYQVTGYGINGTGDS | 3.27 |
| YHEAPMERKHYQVTGYGINGTGDS | 2.39 |
| YHEAPMARKHYQVTGYGINGTGDS | 2.33 |
| YHEAPMQRKHYQVTGYGINGTGDS | 2.57 |
| YHEAPMGRKHYQVTGYGINGTGDS | 2.08 |
| YHEAPMKRKHYQVTGYGINGTGDS | 1.86 |

| Variant | protein stability index |
| --- | --- |
| YHEAPMYRKHYQVTGYGINGTGDS | 1.47 |
| YHEAPMMRKHYQVTGYGINGTGDS | 2.17 |
| YHEAPMCRKHYQVTGYGINGTGDS | 2.2 |
| YHEAPMIRKHYQVTGYGINGTGDS | 2.45 |
| YHEAPMNRKHYQVTGYGINGTGDS | 1.82 |
| YHEAPMLRKHYQVTGYGINGTGDS | 1.79 |
| YHEAPMDRKHYQVTGYGINGTGDS | 2.66 |
| YHEAPMHRKHYQVTGYGINGTGDS | 2.03 |
| YHEAPMSRKHYQVTGYGINGTGDS | 2.3 |
| YHEAPMRRKHYQVTGYGINGTGDS | 1.87 |
| YHEAPMVRKHYQVTGYGINGTGDS | 2.07 |
| YHEAPMFRKHYQVTGYGINGTGDS | 1.92 |
| YHEAQMTRKHYQVTGYGINGTGDS | 2.84 |
| YHEATMTRKHYQVTGYGINGTGDS | 2.02 |
| YHEAMMTRKHYQVTGYGINGTGDS | 2.79 |
| YHEAYMTRKHYQVTGYGINGTGDS | 1.73 |
| YHEAWMTRKHYQVTGYGINGTGDS | 1.63 |
| YHEARMTRKHYQVTGYGINGTGDS | 2.29 |
| YHEAVMTRKHYQVTGYGINGTGDS | 2.14 |
| YHEASMTRKHYQVTGYGINGTGDS | 2.69 |
| YHEALMTRKHYQVTGYGINGTGDS | 1.89 |
| YHEANMTRKHYQVTGYGINGTGDS | 2.32 |
